The text below walks through data of US20180185504A1 (Regeneron, published 2018).

Assay [1] has as its target T1, human PRLR on cells (endogenous on T47D, T47D#11, MCF7); introduced in HEK293/hPRLR/STAT5-Luc, 293/hPRLR, … (human, UniProt P16471 25-622).
T1 construct: no tag is stated for these lines; also called prolactin receptor
T1 sequence: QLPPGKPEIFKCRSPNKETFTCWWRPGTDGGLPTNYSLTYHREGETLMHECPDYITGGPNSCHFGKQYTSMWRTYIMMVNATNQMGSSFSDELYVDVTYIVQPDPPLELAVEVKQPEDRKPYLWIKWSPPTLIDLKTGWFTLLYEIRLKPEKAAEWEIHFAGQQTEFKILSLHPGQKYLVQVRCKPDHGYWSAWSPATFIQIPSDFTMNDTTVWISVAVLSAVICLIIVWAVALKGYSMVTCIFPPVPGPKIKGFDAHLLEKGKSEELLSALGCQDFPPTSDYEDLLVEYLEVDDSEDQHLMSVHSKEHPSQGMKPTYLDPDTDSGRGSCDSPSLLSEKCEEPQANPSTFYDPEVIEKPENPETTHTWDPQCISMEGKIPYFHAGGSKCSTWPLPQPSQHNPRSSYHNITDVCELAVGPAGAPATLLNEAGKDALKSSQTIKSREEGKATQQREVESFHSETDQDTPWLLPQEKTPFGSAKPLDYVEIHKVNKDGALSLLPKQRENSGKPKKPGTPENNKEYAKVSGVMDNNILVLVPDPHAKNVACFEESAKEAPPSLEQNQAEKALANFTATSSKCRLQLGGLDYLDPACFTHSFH
Nature of the assay: FACS on T47D cells.

The target of assay [2] is T1, human PRLR on cells (endogenous on …). In words: cell-based or functional assay.
Assay [3] has the same target. Nature of the assay: cell-based or functional assay. This is another data set of the same source.
Assay [4] addresses T2, hPRLR.mmh (soluble monomeric human PRLR) (human).
T2 construct: soluble monomeric PRLR protein
T2 chain: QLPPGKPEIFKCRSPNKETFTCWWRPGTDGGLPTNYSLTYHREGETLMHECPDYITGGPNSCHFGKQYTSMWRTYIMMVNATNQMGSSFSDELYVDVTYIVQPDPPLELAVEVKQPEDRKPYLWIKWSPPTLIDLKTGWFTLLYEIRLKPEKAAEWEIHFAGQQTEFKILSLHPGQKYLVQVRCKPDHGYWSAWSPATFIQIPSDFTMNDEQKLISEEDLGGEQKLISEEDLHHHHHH
Nature of the assay: SPR (Biacore), antibody capture, 37 C. The procedure: (§1) Measurements were conducted on a T200 Biacore instrument. Kinetic association (kₐ) and dissociation (kd) rate constants were determined by processing and fitting the data to a 1:1 binding model using Scrubber 2.0 curve fitting software.
Background: SPR reads the build-up and loss of mass on a sensor chip optically.

Assay [5] concerns the target T3, hPRLR.mFc (soluble dimeric human PRLR) (human).
T3 construct: dimeric PRLR construct
T3 chain: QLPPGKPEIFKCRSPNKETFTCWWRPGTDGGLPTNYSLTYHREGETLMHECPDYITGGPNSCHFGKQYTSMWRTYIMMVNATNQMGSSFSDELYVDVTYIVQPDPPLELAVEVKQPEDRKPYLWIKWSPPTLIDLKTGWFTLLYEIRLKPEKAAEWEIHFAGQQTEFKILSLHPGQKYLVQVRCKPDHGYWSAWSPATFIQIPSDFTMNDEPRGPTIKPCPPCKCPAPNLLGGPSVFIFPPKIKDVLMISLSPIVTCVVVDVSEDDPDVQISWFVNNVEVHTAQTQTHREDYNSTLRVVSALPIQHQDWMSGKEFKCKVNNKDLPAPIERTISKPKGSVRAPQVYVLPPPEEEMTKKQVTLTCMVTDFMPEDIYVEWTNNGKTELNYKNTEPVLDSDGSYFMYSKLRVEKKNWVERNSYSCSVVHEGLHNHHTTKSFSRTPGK
In words: SPR (Biacore), antibody capture, 37 C. The procedure:
as §1

Assay [6] deals with T4, mfPRLR.mmh (soluble monomeric macaca fascicularis PRLR) (macaca fascicularis).
T4 construct: soluble monomeric PRLR protein; also called macaca fascicularis (mf) PRLR.mmh; monkey PRLR
T4 chain: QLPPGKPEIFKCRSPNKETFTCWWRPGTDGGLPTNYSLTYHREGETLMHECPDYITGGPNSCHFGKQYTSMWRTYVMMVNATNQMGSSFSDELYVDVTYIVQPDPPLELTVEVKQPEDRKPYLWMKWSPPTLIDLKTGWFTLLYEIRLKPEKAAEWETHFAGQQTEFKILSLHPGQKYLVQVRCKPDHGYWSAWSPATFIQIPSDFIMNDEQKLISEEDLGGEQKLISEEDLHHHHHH
In words: SPR (Biacore), antibody capture, 37 C. The procedure:
as §1

In assay [7] the target is T1, human PRLR on cells (endogenous on …). Nature of the assay: imaging of alexa488 intensity on T47D cells. The procedure: Briefly, 20,000 T47D cells were seeded in collagen coated 96 well plates. […] Cells were then incubated with alexa488 conjugated anti-hFc Fab secondary antibodies for 30 minutes on ice followed by two additional PBS washes. Antibodies were allowed to internalize for 1 h at 37° C. in internalization buffer (PBS+2% FBS) or remained at 4° C. Cells were fixed in 4% formaldehyde, nuclei were stained with DRAQ5 (Cell signaling), and images were acquired on the ImageXpress micro XL (Molecular Devices). Whole cell alexa488 intensity at 37° C. (Binding) and the alexa488 intensity in the intracellular vesicles at 37° C. (Internalization) were determined via Columbus image analysis software (PerkinElmer).

B1: H1H6765P (antibody, human IgG1, V domains shown)
VH: EVQLVESGGGVVRPGGSLRLSCVGSGFSFDDHGMNWVRQGPGKGLEWVSGFNWNGGSTNYAESVKGRFTISRDNARNSLFLQMNSLRAEDTALYYCVRGRSGWFNDAFDVWGPGTMVTVSS
VL: EIVLTQSPGTLSLSPGERATLSCRASQTINSNYLAWYRQKPGQTPRLLIYGTSSRATGIPDRFSGSGSGTDFSLTISRLEPEDFAVFYCQQYAGLPTFGPGTKVDIK
notes: human IgG1 Fc (H1H)
Take B1: the “FACS Cell Binding (Fold Above Background)” value in assay [1] turned out to be 40 fold. For the same molecule, in assay [2], the “% Internalization relative to Control I (T47D cells, imaging)” value (from here on “% Internalization relative to Control I”) was determined as 186%. In assay [3], the “IC50 of Blocking 5 nM PRL [M] (STAT5-Luc reporter, HEK293/hPRLR/STAT5-Luc cells)” value came out at 3.3e-11 M and the “Percent Blocking at 100 nM Antibody (STAT5-Luc reporter)” value (from here on “Percent Blocking at 100 nM Antibody”) stood at 100%. Further, in assay [4], the Kd (usually a measure of binding affinity in units of concentration) was 0.292 nM; the “T 1/2” value came out at 32 min; the koff – broadly, the rate constant with which the complex falls apart – is 0.000366 s⁻¹; the kon (in general, the rate constant with which the complex forms) worked out at 1.25e+06 M⁻¹ s⁻¹. Besides, in assay [5], the Kd came to 0.128 nM, the “T 1/2” value came out at 112 min, the koff was determined as 0.000103 s⁻¹ and the kon stood at 801000 M⁻¹ s⁻¹. Further, in assay [6], the Kd amounted to 0.0504 nM, the “T 1/2” value is 215 min, the koff is 5.37e-05 s⁻¹ and the association rate constant (kon) was 1.06e+06 M⁻¹ s⁻¹. Moreover, in assay [7], the “% Total Binding relative to Control I” value was determined as 191%.

B2: H1H6803P (antibody, human IgG1, V domains shown)
VH: EVQLVESGGGVVRPGGSLRLSCAASGFKFDDYGMTWVRHVPGKGLEWVSGINWNGGRTGYTDSVKGRFTISRDNAKNSLYLQMNSLRAEDTALYHCAGARRDAFDIWGQGTMVTVSS
VL: DIQMTQSPSSLSASIGDRVTITCRASQNIIKYLNWYQQNAGKAPKLLIYTASSLQSGVPSRFSGSGSGTDFTLTISSLQPEDFATYYCQQSSSSPYTFGQGTKLEIK
notes: human IgG1 Fc (H1H)
In the case of B2, the “FACS Cell Binding (Fold Above Background)” value in assay [1] amounted to 39 fold. For the same molecule, the “% Internalization relative to Control I” value in assay [2] was 190%. For the same molecule, in assay [3], the “IC50 of Blocking 5 nM PRL [M] (STAT5-Luc reporter, HEK293/hPRLR/STAT5-Luc cells)” value came out at 6.27e-10 M and the “Percent Blocking at 100 nM Antibody” value is 100%. In assay [4], the Kd turned out to be 2.83 nM, the “T 1/2” value turned out to be 32 min, the koff is 0.000364 s⁻¹ and the kon came out at 129000 M⁻¹ s⁻¹. Also, in assay [5], the Kd was 0.461 nM, the “T 1/2” value turned out to be 186 min, the koff stood at 6.2e-05 s⁻¹ and the kon was 134000 M⁻¹ s⁻¹. Besides, in assay [6], the Kd came out at 7.28 nM, the “T 1/2” value was determined as 18 min, the koff came to 0.000636 s⁻¹ and the kon turned out to be 87300 M⁻¹ s⁻¹. In assay [7], the “% Total Binding relative to Control I” value worked out at 206%.

B3: H1H6762P (antibody, human IgG1, V domains shown)
VH: QVQLVESGGGVVQPGRSLRLSCAASGFTFSHYGMVWVRQPPGKGLEWVALISFDGTTKYYADSVKGRFTISRDNSKNTLYLQMNSLRAEDTAVYFCVGAIAAAAFDLWGRGTLVTVSS
VL: EIVMTQSPATLSVSPGERATLSCRASQSVSSDLAWYQQKPGQAPRLLIYSASARATGIPARFTGSGSGTDFTLTISSLQSEDFAVYYCQQYNNWPMYTFGQGTKLEIK
notes: human IgG1 Fc (H1H)
For B3, the “FACS Cell Binding (Fold Above Background)” value in assay [1] is 38 fold. For the same molecule, the “% Internalization relative to Control I” value in assay [2] is 186%. In assay [3], the “IC50 of Blocking 5 nM PRL [M] (STAT5-Luc reporter, HEK293/hPRLR/STAT5-Luc cells)” value is 2.19e-11 M and the “Percent Blocking at 100 nM Antibody” value stood at 100%. Moreover, in assay [4], the affinity, expressed as Kd, was 0.48 nM; the “T 1/2” value was found to be 25 min; the koff was determined as 0.000455 s⁻¹; the kon came out at 948000 M⁻¹ s⁻¹. Also, in assay [5], the Kd turned out to be 0.128 nM, the “T 1/2” value stood at 112 min, the koff is 0.000103 s⁻¹ and the kon stood at 801000 M⁻¹ s⁻¹. Also, in assay [6], the Kd worked out at 0.823 nM, the “T 1/2” value came to 21 min, the koff was 0.000558 s⁻¹ and the kon was determined as 679000 M⁻¹ s⁻¹. Also, the “% Total Binding relative to Control I” value in assay [7] is 177%.

B4: H1H6800P (antibody, human IgG1, V domains shown)
VH: EVQLVESGGGLVQPGRSLRLSCAASGFTFDGYAMHWVRQGPGKGLEWVSGISWYSDTLGYADSVKGRFTISRDNAKNSLYLQMNSLRTEDTAFYYCAKISSSGWAFDYWGQGTLVTVSS
VL: EIVLTQSPGTLSLSPGERATLSCRASHSVSSAYLAWYQQKPGQTPRLLIYGTSSRATGIPDRFSGSGSGTDFTLTISRLEPEDFAVYYCQQYGSSPLFTFGPGTKVDIK
notes: human IgG1 Fc (H1H)
For B4, the “FACS Cell Binding (Fold Above Background)” value in assay [1] was 41 fold. In assay [2], the “% Internalization relative to Control I” value is 198%. In assay [3], the “IC50 of Blocking 5 nM PRL [M] (STAT5-Luc reporter, HEK293/hPRLR/STAT5-Luc cells)” value stood at 3.55e-10 M and the “Percent Blocking at 100 nM Antibody” value stood at 100%. Further, in assay [4], the Kd came to 1.47 nM, the “T 1/2” value was found to be 10 min, the koff was found to be 0.00119 s⁻¹ and the kon turned out to be 808000 M⁻¹ s⁻¹. Moreover, in assay [5], the Kd worked out at 0.229 nM, the “T 1/2” value is 79 min, the koff was 0.000147 s⁻¹ and the kon is 644000 M⁻¹ s⁻¹. In assay [6], the dissociation constant (Kd) is 2.48 nM, the “T 1/2” value is 11 min, the koff came out at 0.00109 s⁻¹ and the kon is 439000 M⁻¹ s⁻¹. Also, the “% Total Binding relative to Control I” value in assay [7] was 187%.

B5: H1H6975N (antibody, human IgG1, V domains shown)
VH: EVHLVESGGGLVQPGGSLRLSCAASGFTFSSYEMNWVRQTPGKGLEWISHISSRSVIIYYADSVKGRFTISRDNAKNSLFLQMNSLRAEDTAVYFCAGITIFGIPEYWGQGTLVTVSS
VL: EIVLTQSPATLSLSPGERATLSCRASQSVSSYFAWYQQKPGQAPRLLIYDASSRATGIPTRFSGSGSGTDFTLTISSLEPEDFAVYYCQQRSSWPITFGQGTRLEIK
notes: also called H2M6975N
In the case of B5, the “FACS Cell Binding (Fold Above Background)” value in assay [1] amounted to 46 fold. Also, the “% Internalization relative to Control I” value in assay [2] stood at 214%. In assay [3], the “IC50 of Blocking 5 nM PRL [M] (STAT5-Luc reporter, HEK293/hPRLR/STAT5-Luc cells)” value came out at 2.41e-10 M and the “Percent Blocking at 100 nM Antibody” value is 100%. Moreover, in assay [4], the Kd was determined as 1.29 nM, the “T 1/2” value was 42.3 min, the koff is 0.000273 s⁻¹ and the kon stood at 211000 M⁻¹ s⁻¹. Further, in assay [5], the affinity, expressed as Kd, was 0.184 nM; the “T 1/2” value was found to be 163 min; the koff came out at 7.09e-05 s⁻¹; the on-rate (kon) turned out to be 386000 M⁻¹ s⁻¹. Also, in assay [6], binding was characterised by a dissociation constant (Kd) of 2.27 nM, the “T 1/2” value was 36.4 min, the koff worked out at 0.000317 s⁻¹ and the kon came to 140000 M⁻¹ s⁻¹. Further, in assay [7], the “% Total Binding relative to Control I” value was 226%.
